Measurements published in US20220153796A1 (IMMATICS BIOTECHNOLOGIES, published 2022).

These binders were tested against HLA-B*07 (human) (assay: UV peptide exchange ELISA).
From the text: (§1) Candidate peptides for T cell based therapies according to the present invention were further tested for their MHC binding capacity (affinity). The individual peptide-MHC complexes were produced by UV-ligand exchange, where a UV-sensitive peptide is cleaved upon UV-irradiation, and exchanged with the peptide of interest as analyzed. Only peptide candidates that can effectively bind and stabilize the peptide-receptive MHC molecules prevent dissociation of the MHC complexes. To determine the yield of the exchange reaction, an ELISA was performed based on the detection of the light chain (β2m) of stabilized MHC complexes. The assay was performed as generally described in Rodenko et al. (Rodenko et al., 2006).
(§2) 96 well MAXISorp plates (NUNC) were coated over night with 2 ug/ml streptavidin in PBS at room temperature, washed 4× and blocked for 1 h at 37° C. in 2% BSA containing blocking buffer. […] Peptide-MHC monomers of the UV-exchange reaction were diluted 100-fold in blocking buffer. Samples were incubated for 1 h at 37° C., washed four times, incubated with 2 ug/ml HRP conjugated anti-β2m for 1h at 37° C., washed again and detected with TMB solution that is stopped with […]. Absorption was measured at 450 nm.

| Binder | peptide exchange yield [%] |
| --- | --- |
| SAYPQRLEI | 10 to 20 |

The binders below were run against HLA-A*03 (human) (assay: UV peptide exchange ELISA).
From the text: as §1, §2

| Binder | peptide exchange yield [%] |
| --- | --- |
| KLYAWELAF | 50 to 75 |
| KTLVAELLILK | 50 to 75 |

What follows are binders tested against HLA-A*02 (human) (assay: UV peptide exchange ELISA).

| Binder | peptide exchange yield [%] |
| --- | --- |
| ALCLLLHLL | 10 to 20 |
| LMAFFLAVV | 20 to 50 |

The binders below were run against HLA-A*01 (human) (assay: UV peptide exchange ELISA).

| Binder | peptide exchange yield [%] |
| --- | --- |
| ATDLVVLDRY | > 75 |
| NTDNNLAVY | > 75 |
| VTDGSLYEGVAY | > 75 |
| ECDMAFHIY | > 75 |
| VVADTKMIEY | 10 to 20 |
| VVDSVGGYLY | > 75 |
| WMFFVINY | 10 to 20 |
| ASEQQALHTVQY | > 75 |
